# B1: r16_88_TrROS_Hall (parent)
# chain: EVIELKIKFKTPEQREKLKEIAKKLNAEVVEEKDGEVIIRFKTPEQAERALKEAEKLGAEVEL
# Variants of: B1
# Assay: folding stability dG (cDNA display proteolysis); higher = more stable
# Conditions: PBS, room temperature
row,Variant,folding stability dG [kcal/mol]
1,EVIELKIKFKTPEQREKLKEIAKKLNAEVVEEKDGEVIIRFKTPEQAERALKEAEKLGAYVEL [E60Y],4.21
2,EVIELKIKFKTPEQREKLKEIAKKLNAEVVEEKDGEVIIRFKTPEQAERALKEAEKLGARVEL [E60R],4.15
3,EVIELKIKFKTPEQREKLKEIAKKLNAEVVEEKDGEVIIRFKTPEFAERALKEAEKLGAEVEL [Q46F],4.43
4,EVIELKIKFKTPEQREKLKEIAIKLNAEVVEEKDGEVIIRFKTPEQAERALKEAEKLGAEVEL [K23I],4.56
5,EVIELKIKFKTPEQREKLKEIAKKLNAEVVEEKDGEVIIRFKTPEQFERALKEAEKLGAEVEL [A47F],4.52
6,EVIELKIKFKTPEQREKLKEIAKKLNAEVVEEKDGEVIIRFKTPEQKERALKEAEKLGAEVEL [A47K],4.65
7,EVIELKIKFKTPEQREKLKEIAKKLNNEVVEEKDGEVIIRFKTPEQAERALKEAEKLGAEVEL [A27N],3.76
8,EVTELKIKFKTPEQREKLKEIAKKLNAEVVEEKDGEVIIRFKTPEQAERALKEAEKLGAEVEL [I3T],4.67
9,EVEELKIKFKTPEQREKLKEIAKKLNAEVVEEKDGEVIIRFKTPEQAERALKEAEKLGAEVEL [I3E],4.3
10,EVVELKIKFKTPEQREKLKEIAKKLNAEVVEEKDGEVIIRFKTPEQAERALKEAEKLGAEVEL [I3V],4.58
11,EVIELKIKFKTPEQREKLPEIAKKLNAEVVEEKDGEVIIRFKTPEQAERALKEAEKLGAEVEL [K19P],3.37
12,EVIELKIKFKTPEQREKLFEIAKKLNAEVVEEKDGEVIIRFKTPEQAERALKEAEKLGAEVEL [K19F],4.62
13,EVIELKIKFKTPEQREKLVEIAKKLNAEVVEEKDGEVIIRFKTPEQAERALKEAEKLGAEVEL [K19V],4.14
14,EVIELKIKFKTPEQREKLHEIAKKLNAEVVEEKDGEVIIRFKTPEQAERALKEAEKLGAEVEL [K19H],4.29
15,EVIELKIKFKGPEQREKLKEIAKKLNAEVVEEKDGEVIIRFKTPEQAERALKEAEKLGAEVEL [T11G],4.26
16,EVIELKIKFKVPEQREKLKEIAKKLNAEVVEEKDGEVIIRFKTPEQAERALKEAEKLGAEVEL [T11V],4.48
17,EVIELKIKFKTPEQREKLKEIAKGLNAEVVEEKDGEVIIRFKTPEQAERALKEAEKLGAEVEL [K24G],4.47
18,EVIELKIKFKTPEQREKLKEIAKKLNAEVVEEKDGEVIIRFKPPEQAERALKEAEKLGAEVEL [T43P],3.06
19,EVIELKIKFKTPEQREKLKEIAKKLNAEVVEQKDGEVIIRFKTPEQAERALKEAEKLGAEVEL [E32Q],4.62
20,EVIELKIKFKTPEQREKLKEIAKKLNAEVVELKDGEVIIRFKTPEQAERALKEAEKLGAEVEL [E32L],4.31
21,EVIELKIKKKTPEQREKLKEIAKKLNAEVVEEKDGEVIIRFKTPEQAERALKEAEKLGAEVEL [F9K],2.75
22,EVIELKIKPKTPEQREKLKEIAKKLNAEVVEEKDGEVIIRFKTPEQAERALKEAEKLGAEVEL [F9P],4.02

row,Variant,folding stability dG [kcal/mol]
1,EVIEMKIKFKTPEQREKLKEIAKKLNAEVVEEKDGEVIIRFKTPEQAERALKEAEKLGAEVEL [L5M],4.49
2,EVIEFKIKFKTPEQREKLKEIAKKLNAEVVEEKDGEVIIRFKTPEQAERALKEAEKLGAEVEL [L5F],4.91
3,EVIEKKIKFKTPEQREKLKEIAKKLNAEVVEEKDGEVIIRFKTPEQAERALKEAEKLGAEVEL [L5K],4.38
4,EVIELKIKFKTPEQREKLKEIAKKLNAEVVEEKDGEVIIRFKTPEQAERALKEAEILGAEVEL [K56I],4.52
5,EVIELKIKFKTPEQREKLKEIAKKLNAEVVEEKDGEVIIRFKTPEQAERALGEAEKLGAEVEL [K52G],4.44
6,EVIELKIKFKTPEQLEKLKEIAKKLNAEVVEEKDGEVIIRFKTPEQAERALKEAEKLGAEVEL [R15L],4.18
7,EVIELKIKFKTPEQREKLKEIAKKLNAEVVEEKDGEVIIRFKTPEQAERALKEAEKLGSEVEL [A59S],4.26
8,EVIELKIKFKTPEQREKLKEIAKKLNAEVVEEKDGEVIIRFKTPEQAERALKEAEKLGAEVEW [L63W],4.73
9,EVIELKIKFKTPEQREKLKEIAKKLNAEVVEEKDGHVIIRFKTPEQAERALKEAEKLGAEVEL [E36H],4.68
10,EVIELKIKFKTPEQREKLKEIAKKYNAEVVEEKDGEVIIRFKTPEQAERALKEAEKLGAEVEL [L25Y],4.91
11,EVIELKIKFKTPEQREKLKEIAKKRNAEVVEEKDGEVIIRFKTPEQAERALKEAEKLGAEVEL [L25R],4.09
12,EVIELKIKFKTPEQREKLKEIAKKVNAEVVEEKDGEVIIRFKTPEQAERALKEAEKLGAEVEL [L25V],4.32
13,EVIELKIKFKTPEQREKLKEIAKKCNAEVVEEKDGEVIIRFKTPEQAERALKEAEKLGAEVEL [L25C],4.35
14,EVIELKIKFKTPEQREKLKEIAKKGNAEVVEEKDGEVIIRFKTPEQAERALKEAEKLGAEVEL [L25G],4.23
15,EVIELKIKFKTPEQREKLKEIAKKENAEVVEEKDGEVIIRFKTPEQAERALKEAEKLGAEVEL [L25E],4.25
16,EVIELKIKFKTPEQREKKKEIAKKLNAEVVEEKDGEVIIRFKTPEQAERALKEAEKLGAEVEL [L18K],1.68
17,EVIELKIKFKTPEQREKLKEIAKKLNAEVVEEKDGEVIIYFKTPEQAERALKEAEKLGAEVEL [R40Y],4.86
18,EVIELKIKFKTPEQREKLKEIAKKLNAEVVEEKDGEVIIMFKTPEQAERALKEAEKLGAEVEL [R40M],4.64
19,EVIELKIKFKTPEQREKLKEIAKKLNAEVVEEKDGEVIICFKTPEQAERALKEAEKLGAEVEL [R40C],4.37
20,EVIELKIKFKTPEQREKLKEIAKKLNAEVVEEKDGEVIIRFKTPAQAERALKEAEKLGAEVEL [E45A],4.33
21,EVIELKIEFKTPEQREKLKEIAKKLNAEVVEEKDGEVIIRFKTPEQAERALKEAEKLGAEVEL [K8E],3.87
22,EVIELKIKFKTPEQREKLKEIAKKLNAEVVEEKDGEVIIRFKTPEQAERALKEVEKLGAEVEL [A54V],4.43

row,Variant,folding stability dG [kcal/mol]
1,EVIELKIKFKTPEQREKLKEIAKKLNAEVVEEKDVEVIIRFKTPEQAERALKEAEKLGAEVEL [G35V],4.35
2,EVIELKIKFKTPEQREKLKEIAKKLNAEVVEEKDLEVIIRFKTPEQAERALKEAEKLGAEVEL [G35L],4.32
3,EVIELKIKFKTPEQREKLKEIAKKLNAEVVEEKDYEVIIRFKTPEQAERALKEAEKLGAEVEL [G35Y],4.18
4,EVIELKIKFKTPEQREKLKEIAKKLNAEVVEEKDGEVIIRFKTPEQANRALKEAEKLGAEVEL [E48N],4.62
5,EVIELKIKFKTPEQREKLKEIAKKLNAEVVEEKDGEVIIRFKTPEQAHRALKEAEKLGAEVEL [E48H],4.52
6,EVIELKIKFKTPEQREKLKEIAKKLNAEVVEEQDGEVIIRFKTPEQAERALKEAEKLGAEVEL [K33Q],4.49
7,EVIELKFKFKTPEQREKLKEIAKKLNAEVVEEKDGEVIIRFKTPEQAERALKEAEKLGAEVEL [I7F],4.53
8,EVIELKIKFKTPEQREKLKEIAKKLNAEVVEEKDGEVIIRFKTPEQAERALKNAEKLGAEVEL [E53N],3.87
9,EVIELKIKFKTPEQREKLKEIAKKLNAEVVEEKDGEVIIRFKTPEQAERALKIAEKLGAEVEL [E53I],4.27
10,EVIELKIKFKTPEQREKLKEIAKKLNAEVVEEKDGEVIIRFKTPEQAERALKDAEKLGAEVEL [E53D],4.34
11,EVIELKIKFKTPEQREKLKEIAKKLNAEVVEEKDGEVIIRFKTGEQAERALKEAEKLGAEVEL [P44G],4.37
12,EVIELKIKFKTPEQREKLKEIAKKLNAEVVEEKDGEVIIRFKTDEQAERALKEAEKLGAEVEL [P44D],4.15
13,EVIELKIKFKTPEQREKLKEIAKKLNAEVVEEKDGEVIIRFKTPEQAERALKEAVKLGAEVEL [E55V],4.51
14,EVIELKIKFKTPEQREWLKEIAKKLNAEVVEEKDGEVIIRFKTPEQAERALKEAEKLGAEVEL [K17W],4.61
15,EVIELKIKFKTPEQREVLKEIAKKLNAEVVEEKDGEVIIRFKTPEQAERALKEAEKLGAEVEL [K17V],4.28
16,EVIELKIKFKTPEQREMLKEIAKKLNAEVVEEKDGEVIIRFKTPEQAERALKEAEKLGAEVEL [K17M],4.42
17,EVIELKIKFKTPEQREKLKHIAKKLNAEVVEEKDGEVIIRFKTPEQAERALKEAEKLGAEVEL [E20H],4.5
18,EVIELKIKFKTPEQREKLKPIAKKLNAEVVEEKDGEVIIRFKTPEQAERALKEAEKLGAEVEL [E20P],3.68
19,EVIELKIKFKTPEQREKLKCIAKKLNAEVVEEKDGEVIIRFKTPEQAERALKEAEKLGAEVEL [E20C],4.51
20,EVIELKIKFKTPEQREKLKEIAKKLDAEVVEEKDGEVIIRFKTPEQAERALKEAEKLGAEVEL [N26D],4.3
21,EVIELKIKFKTWEQREKLKEIAKKLNAEVVEEKDGEVIIRFKTPEQAERALKEAEKLGAEVEL [P12W],4.88
22,EVIELKIKFKTKEQREKLKEIAKKLNAEVVEEKDGEVIIRFKTPEQAERALKEAEKLGAEVEL [P12K],4.4

row,Variant,folding stability dG [kcal/mol]
1,EVIELKIKFKTPEQRLKLKEIAKKLNAEVVEEKDGEVIIRFKTPEQAERALKEAEKLGAEVEL [E16L],4.6
2,EVIELKIKFKTPEQRQKLKEIAKKLNAEVVEEKDGEVIIRFKTPEQAERALKEAEKLGAEVEL [E16Q],4.43
3,EVIELKIKFKTPEQREKLKEIAKKLNAEVVEEKDGEVIYRFKTPEQAERALKEAEKLGAEVEL [I39Y],5
4,EVIELKIKFKTPEQREKLKEIAKKLNAEVVEEKDGEVIGRFKTPEQAERALKEAEKLGAEVEL [I39G],3.23
5,EVILLKIKFKTPEQREKLKEIAKKLNAEVVEEKDGEVIIRFKTPEQAERALKEAEKLGAEVEL [E4L],4.56
6,EVIELKIKFKTPEQREKLKEIAKKLNAEVVEEKDGEVIIRFKTPEQAEGALKEAEKLGAEVEL [R49G],4.37
7,EVIELKIKFKTPEQREKLKEIAKKLNAEVVEEKDGEVIIRFKTPEQAEIALKEAEKLGAEVEL [R49I],4.49
8,EVIELKIKFKTPEQREKLKEIAKKLNAEVVEEKDGEVIIRFKTPEQAEHALKEAEKLGAEVEL [R49H],4.4
9,EVIELKIKFKTPEQREKLKEIAKKLNAEVVEEKDGEVIIRFKTPEQAEEALKEAEKLGAEVEL [R49E],4.52
10,EVIELKIKFKTPEQREKLKEIAKKLNAEVVEEKDGEVIIRFKTPEQAEVALKEAEKLGAEVEL [R49V],4.5
11,EVIELKIKFKTPEQREKLKEIVKKLNAEVVEEKDGEVIIRFKTPEQAERALKEAEKLGAEVEL [A22V],4.38
12,EVIELKIKFKTPEQREKLKEIYKKLNAEVVEEKDGEVIIRFKTPEQAERALKEAEKLGAEVEL [A22Y],4.74
13,EVIELKIKFKTPEQREKLKEIAKKLNAEVVEEKDGEWIIRFKTPEQAERALKEAEKLGAEVEL [V37W],4.36
14,EVIELKIKFKTPEQREKLKEIAKKLNAEVVEEKDGEPIIRFKTPEQAERALKEAEKLGAEVEL [V37P],2.49
15,EVIELKIKFKTPEQREKLKEIAKKLNAEVVEEKDGENIIRFKTPEQAERALKEAEKLGAEVEL [V37N],3.52
16,EVIELKIKFKTPEQREKLKEIAKKLNAEVVEEKDGEEIIRFKTPEQAERALKEAEKLGAEVEL [V37E],3.36
17,EVIELKIKFKTPEQREKLKEIAKKLNAELVEEKDGEVIIRFKTPEQAERALKEAEKLGAEVEL [V29L],4.2
18,EVIELKIKFKTPEQREKLKEIAKKLNAEAVEEKDGEVIIRFKTPEQAERALKEAEKLGAEVEL [V29A],4.3
19,EMIELKIKFKTPEQREKLKEIAKKLNAEVVEEKDGEVIIRFKTPEQAERALKEAEKLGAEVEL [V2M],4.45

# Source: the MegaScale stability set (Tsuboyama et al. 2023)
